Laboratory results: the RNAGym collection of RNA variant scans (doi:10.1073/pnas.2313332121)

B1: TPR t1 (parent)
chain: GACCAAUCUGCCCUCAGAGCUCGAGAACAUCUUCGGAUGCAGAGGAGGCAGGCUUCGGUGGCGCGAUAGCGCCAACGUCCUCAACCUCCAAUGCAUCCCACCACAUGAUGAUGCCUGAAGAGCCUUGGUUUUUUG

Variants of: B1
Test: polymerase ribozyme fitness, log enrichment relative to wild type (log ratio); higher = more active; in vitro selection for triplet polymerase activity
Method in brief: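 Fitness measures genotype enrichment against wild-type enrichment on a logarithmic scale, with inverse-variance-weighted averaging of replicates. The logarithm is base 2, and genotypes were kept only with ≥10 input reads and ≥1 read per output in Illumina sequencing. The sequenced libraries came from one triplicate in vitro selection round, including frozen incubation at −7 °C, of PCR-built, transcribed mutant libraries of each subunit of a heterodimeric triplet polymerase ribozyme.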

Variant	polymerase ribozyme fitness (log ratio)
G45C G51A U78A C123G	-2.51
G44A G63A A84U	-2.6
A43G G48A G63A U78C U112C G127U	-3.79
A46C C89A	-5.69
A46C C89U	-0.611
G44A A119G C123A	0.608
G44A A68G U112A	-3.21
A43U U55C U92C	-2.54
A43U U92G C124U	-0.53
G45C U129A	-2.61
G45U C64U A121G	-0.662
A43G G61A	-1.27
A43G G61U	-1.45
G45U A66C	-2.87
G44A C72A U78C A119G	0.491
G44C A46U C86U	-2.43
A43U U106A A118U	-1.2
G44A C70A C89A	-4.72
A43U U92G	-1.81
G44A U96G U116A	-5.13
G44U A46U A111C	-3.04
G44U C97A	-6.15
A46C G52U C88A G110A A118G U126C	-3.39
G44A G110A	-2.08

Variant	polymerase ribozyme fitness (log ratio)
G44C G60U	-0.287
G45C C82U G93A C101U	-1.84
A46G	-0.119
A46C	-0.983
A43U G61U G93U	-1.76
G45U C104U A119G U130A	-1.09
G45U G110A	-2.13
G44U C70U A111C C124U	-2.44
A46C C56A G110U	-2.45
A46G A108G G117A	-4.03
A46C U112G G122U G135U	-2.04
A46C G61U U106A	0.556
G44C C49U C88A C124U	-1.53
G45C G60C U78A C89A G120C G127A	-5.17
A43G C76U U109G	-6.79
A43U C56G C79G	-4.99
G44U A75U U92C	-1.34
G45U U132A	-1.91
G44U C124A	1.15
G44A C98U C104U U116C	-4.16
G45U U116G	-3.76
G44U G47U U55C	-2.82
A43U U96C C101A G122A G127A	-5.79
A43U G45A C56U C62U U92A	-4.61

Variant	polymerase ribozyme fitness (log ratio)
G45U C101A C102U	-5.42
G45A C49G G60U U106C U112A	-0.821
A43G G57U C73U A90U C102U	-4.93
G45A A46C G58U G61U C85A	-4.13
G45U C70U A119U G127A	-3.74
G45U A105C	-4.28
G45A G60U C64U C94U A105U C124A G127A	-5.55
G44U A118U	-0.733
G45C G69A U87C U130C	-2.8
G45U C85U	-2.01
G45A C89U U133A	-1.52
G45U G57U C73G U78A C94A A119G	-0.559
G44A C76A C123G	0.122
G45U G47C C85A C88U	-4.69
G44A G48U C53A G60U	-1.14
G45U G61A C88U A90C G113A	-3
G45A C53G C64U	-0.958
G44U G45A U54A C72G	-3.66
G45C C62A	-2.24
A43U G63A A103U G117C U131A	-6.74
G45U C70A C115A G128U	-3.65
A43U C49G U78A C115A	-3.44
G45C G61U C86U U87G G93C	-2.62
G45U G58A G77A C82A	-1.74

Variant	polymerase ribozyme fitness (log ratio)
A43U G77A G120A U134G	-0.215
G44A C80A	-3.93
G44U G65A	-6.04
A43U C53G	-1.38
G45C A46U	-2.34
G44C C80U C88A	-2.94
G44A C70U A103U G117U	-5.43
G45U G51A C94G	-5.45
G45U C82A C102U G122A	-3.36
G44A G48C A74U	-2.22
A43G C102A	-4.25
G45A G61A G110U U125C	-0.661
G45U C62A C89G U112A	-4.99
A43U A46U C97U	-3.34
G44C U54A A105G G117U U129A U133A	-7.26
G44A U87G U129G	-1.42
G44C G77U C86A	-4.13
A46C C114U	-2.43
A46C C72G	-2.19
A43U G71U	-1.89
G45U U96C	-1.43
G44U G58C	-0.197
G45A A121U	1.1
G44A G60A C89G C101A C104U	-2.79

Variant	polymerase ribozyme fitness (log ratio)
G44A G60U	-0.542
G44A C104U	-0.855
G45U C56G G63C C101U	-5.92
G45U G113U	-3.73
G44A A46U G93U C104U	-2.25
A43U G110U	-3.52
G44C G71C A84C	-2.61
G45A C53G G61A C79U C98U	-3.8
G45U C82U	-1.52
G44U C49U U96C A111G	-3.97
G44U A111U	-4.9
G45A U55C C62A C89G	-3.49
A43U A50U G60A U112A	-4.39
G45C C73U	-0.881
A46C C56A C73A A91U C97U	-4.49
G45U A68G C79G C99U U112A	-7.19
G45U A46U U106G	-3.7
G44A C56U C72U	-2.35
G44C G48A	-0.967
G45A C72U C89G A91C	-1.81
G45A G63C G110A	-1.54
A43U G63C A100U C124G	-2.24
A43U C49A C114G	-1.78
G44A G77C	-0.688

Variant	polymerase ribozyme fitness (log ratio)
G45A U55C C70U G128A	-4.09
G44C G113C	-3.05
G44C G61A C80A	-4.34
G44C C70A	-2.37
A46C G47A C53A U78C	-1.4
A43U G71U A91G	-2.96
G45A G63A A95G C101G U130C	-3.14
A43U G93C G117C	-4.65
A46G A91C G93A	-3.21
G44C C85U U92A C124U U133C	-1.63
A46C U54A G120U	-0.501
A43U A111G	-0.575
G45U C64U C79G C114U	-5.29
G45A C72U A91G U129A	-3.43
A43U G71A C115U	-3.62
G44A C89G C115A C124A U129A	-1.46
A43U A121U	1.26
A43U A121C	0.506
A46C C73G U87C	-1.35
G45U C114U A121U	-1.71
A46C C49G C73U	-1.01
G44U A46U U112C	-0.701
A46C C115A	-1.52
G45U G52U G61C	-2.32

Variant	polymerase ribozyme fitness (log ratio)
A43G G69C A90C C124G	-0.889
G45U A50U G52U G58A	-4.49
G45U C76G U112A A121U	0.648
A43U C62G	-3.88
A43U C62A	-2.39
G45A C99U	-4.32
A46C G51C	-4.63
G45C U96A G113C	-3.21
A43G C72U C94G C101U U116G	-4.87
G45U C97A U112A	-5.81
G45C G58C	-0.221
G44U C72G G120C	-0.514
G45C U55A C56A	-2.11
A43U G60C C76G U78A G113C U125A	-4.6
G45U U59A C101U	-0.987
G45U C114A	-0.0443
G45U C114G	-3.8
G45C U132C	-1.51
A46G C49G G69C C104U	-3.16
G45A C53A U109G G110U A121U	-3.48
G44C G47U C53A C76G C102G G110C	-7.23
G45U C104A G110U A118C	-5.08
A46C G60C A68U	-7.2
